± gives the uncertainty stated by the source.

A short description of this series: self-splicing fitness, log relative to wild type (ln ratio); higher = more splicing; Tetrahymena group I intron in knt gene, E. coli kanamycin selection, DiMSum; sequences stand for … in CUCUCU…GGAGGGAAAAGUUAUCAGGCAUGCACCUGGUAGCUAGUCUUUAAACCAAUAGAUUGCAUCGGUUUAAAAGGCAAGACCGUCAAAUUGCGGGAAAGGGGUCAACAGCCGUUCAGUACCAAGUCUCAGGGGAAACUUUGAGAUGGCCUUGCAAAGGGUAUGGUAAUAAGCUGACGGACAUGGUCCUAACCACGCAGCCAAGUCCUAAGUCAACAGAUCUUCUGUUGAUAUGGAUGCAGUUCACAGACUAAAUGUCGGUCGGGGAAGAUGUAUUCUUCUCAUAAGAUAUAGUCGGACCUCUCCUUAAUGGGAGCUAGCGGAUGAAGUGAUGCAACACUGGAGCCGCUGGGAACUAAUUUGUAUGCGAAAGUAUAUUGAUUAGUUUUGGAGUACUCGUGGUCG
The gist of the method: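 Library with all eight P1ex-region intron nucleotides randomised, intron inside the knt kanamycin-resistance gene on pET-22b(+), in E. coli BL21(DE3). Cells grew overnight at 37°C or 30°C on LB agar with or without 25 μg/mL kanamycin (plus 100 μg/mL carbenicillin, 50 μM IPTG, 0.2% rhamnose), in six replicate transformations. Pooled colonies were amplicon-sequenced on Illumina HiSeq 2500. DiMSum fitness is the error-weighted combination of wild-type-normalised replicate fold changes, kanamycin versus none.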

For ACCCAGCAAUAUUACGCCCU, the “self-splicing fitness (ln)” value (30 °C) is -0.0641 ± 0.052 and the “self-splicing fitness (ln)” value (37 °C) is 0.262 ± 0.091.
The like results for AUCAAGCAAUAUUACGGGUA were, in that order, -2.04 ± 0.11 and -1.16 ± 0.091.
With GUUAAGCAAUAUUACGGGUA, the “self-splicing fitness (ln)” value is -2.01 ± 0.14 (30 °C) and -1.39 ± 0.12 (37 °C).
For the sequence AAGAAGCAAUAUUACGUCGU, the “self-splicing fitness (ln)” value runs as follows: (30 °C) -1.31 ± 0.058; (37 °C) -0.567 ± 0.073.
Consider UAUAAGCAAUAUUACGUAUU, for which the “self-splicing fitness (ln)” value was -4.41 ± 0.37 (30 °C) and -1.61 ± 0.18 (37 °C).
UAAGAGCAAUAUUACGGAUU: the “self-splicing fitness (ln)” value (37 °C) was -2.13 ± 0.48.
Turning to UCAGAGCAAUAUUACGGCCC, the “self-splicing fitness (ln)” value is -2.13 ± 0.39 (30 °C) and -0.0611 ± 0.34 (37 °C).
In the same order, the values of CUGAAGCAAUAUUACGGUUC are -3.05 ± 0.18 and -3.5 ± 0.3.
Take CGUGAGCAAUAUUACGGUGU: the “self-splicing fitness (ln)” value runs as follows: (30 °C) -3.79 ± 0.43; (37 °C) -1.98 ± 0.22.
As for UCUCAGCAAUAUUACGCAGC, the “self-splicing fitness (ln)” value runs as follows: (30 °C) -3.54 ± 0.24; (37 °C) -2.32 ± 0.21.
In the same order, the values of UGCCAGCAAUAUUACGGUUU are -0.471 ± 0.075 and -0.237 ± 0.096.
Take CGAGAGCAAUAUUACGGCUU: where the note is “37 °C”, the “self-splicing fitness (ln)” value was -3.05 ± 0.4.
For the sequence AGGUAGCAAUAUUACGGCUA, the “self-splicing fitness (ln)” value is -1.66 ± 0.022 (30 °C) and -1.14 ± 0.037 (37 °C).
In the same order, the values of UGAGAGCAAUAUUACGUCUG are -2.76 ± 0.42 and -1.88 ± 0.33.
As to CCUUAGCAAUAUUACGCGUA, the “self-splicing fitness (ln)” value runs as follows: (30 °C) -3.27 ± 0.38; (37 °C) -2.54 ± 0.36.
Regarding AUCUAGCAAUAUUACGAAUC, the “self-splicing fitness (ln)” value is, setting by setting: (30 °C) -4.05 ± 0.36; (37 °C) -3.15 ± 0.27.
As for UCAGAGCAAUAUUACGUCUG, the “self-splicing fitness (ln)” value by setting is: (30 °C) -2.88 ± 0.12; (37 °C) -2.35 ± 0.14.
Regarding UAAUAGCAAUAUUACGUAAG, the “self-splicing fitness (ln)” value is, setting by setting: (30 °C) -2.47 ± 0.21; (37 °C) -0.977 ± 0.15.
The like results for CGCGAGCAAUAUUACGAGCU were, in that order, -3.72 ± 0.37 and -2.22 ± 0.27.
The like results for GGGCAGCAAUAUUACGGUCG were, in that order, -0.993 ± 0.076 and -0.0756 ± 0.12.
With AGGGAGCAAUAUUACGUAGA, the “self-splicing fitness (ln)” value reads like this: (30 °C) -3.05 ± 0.19; (37 °C) -2.22 ± 0.48.
Regarding ACACAGCAAUAUUACGAAGC, the “self-splicing fitness (ln)” value is -4.18 ± 0.22 (30 °C) and -2.8 ± 0.21 (37 °C).
Turning to GUCGAGCAAUAUUACGUGUG, the “self-splicing fitness (ln)” value was -0.922 ± 0.12 (30 °C) and -0.585 ± 0.17 (37 °C).
With GGCAAGCAAUAUUACGAGGA, the “self-splicing fitness (ln)” value by setting is: (30 °C) -3.3 ± 0.42; (37 °C) -1.77 ± 0.24.
As to UAGUAGCAAUAUUACGCCUC, the “self-splicing fitness (ln)” value (37 °C) was -1.66 ± 0.31.
With UUAAAGCAAUAUUACGGCAG, the “self-splicing fitness (ln)” value is 0.129 ± 0.086 (30 °C) and 0.214 ± 0.11 (37 °C).
For GGCAAGCAAUAUUACGGAGA, the “self-splicing fitness (ln)” value is, setting by setting: (30 °C) -2.37 ± 0.24; (37 °C) -2.22 ± 0.27.
As to GCUAAGCAAUAUUACGUAGG, the “self-splicing fitness (ln)” value by setting is: (30 °C) -1.34 ± 0.059; (37 °C) -0.249 ± 0.087.
Regarding ACAAAGCAAUAUUACGAUGU, the “self-splicing fitness (ln)” value is, setting by setting: (30 °C) -3.56 ± 0.11; (37 °C) -2.43 ± 0.12.
On to GCUGAGCAAUAUUACGAAUC, for which the “self-splicing fitness (ln)” value runs as follows: (30 °C) -1.15 ± 0.12; (37 °C) -0.914 ± 0.17.
Consider UAUCAGCAAUAUUACGCGAU, for which the “self-splicing fitness (ln)” value (37 °C) was -2.49 ± 0.23.
On to UGCAAGCAAUAUUACGCAGA, for which the “self-splicing fitness (ln)” value was -1.92 ± 0.16 (30 °C) and -1.75 ± 0.15 (37 °C).
The like results for UAUGAGCAAUAUUACGUACA were, in that order, -2.39 ± 0.18 and -1.62 ± 0.23.
With UUAUAGCAAUAUUACGCGUG, the “self-splicing fitness (ln)” value (30 °C) is -0.968 ± 0.11 and the “self-splicing fitness (ln)” value (37 °C) was -0.618 ± 0.13.
Turning to CAAAAGCAAUAUUACGGCGA, the “self-splicing fitness (ln)” value reads like this: (30 °C) -1.16 ± 0.11; (37 °C) -0.502 ± 0.098.
The like results for GUUAAGCAAUAUUACGACUU were, in that order, 0.183 ± 0.11 and 0.278 ± 0.13.
Turning to UCCCAGCAAUAUUACGAGGU, the “self-splicing fitness (ln)” value (30 °C) was -1.76 ± 0.071 and the “self-splicing fitness (ln)” value (37 °C) is -0.885 ± 0.073.
Regarding GAAUAGCAAUAUUACGCCAG, the “self-splicing fitness (ln)” value was -2.58 ± 0.24 (30 °C) and -1.69 ± 0.3 (37 °C).
The like results for GUGAAGCAAUAUUACGUUCA were, in that order, -1.45 ± 0.078 and -0.809 ± 0.09.

(Values after the supplement of paper PMC7877785.)
